Experimental findings from patent US20170240637A1 (Memorial Sloan Kettering, published 2017) are described below.

In experiment [1] the target is T1, 4Ig-B7H3 (human, UniProt Q5ZPR3 27-461, limits assumed).
T1 construct: also called 4Ig-B73H3
T1 sequence (looked up): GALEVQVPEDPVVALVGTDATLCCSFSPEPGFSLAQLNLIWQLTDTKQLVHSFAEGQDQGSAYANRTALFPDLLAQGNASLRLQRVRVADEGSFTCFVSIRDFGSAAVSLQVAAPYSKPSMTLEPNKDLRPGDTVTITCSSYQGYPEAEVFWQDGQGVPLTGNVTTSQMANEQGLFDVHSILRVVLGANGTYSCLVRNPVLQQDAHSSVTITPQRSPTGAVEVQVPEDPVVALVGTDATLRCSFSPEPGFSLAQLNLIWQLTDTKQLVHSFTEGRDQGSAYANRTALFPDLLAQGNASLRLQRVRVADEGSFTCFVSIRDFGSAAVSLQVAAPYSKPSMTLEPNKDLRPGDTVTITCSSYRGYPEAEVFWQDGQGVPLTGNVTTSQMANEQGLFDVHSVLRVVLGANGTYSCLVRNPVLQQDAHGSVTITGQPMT
Nature of the experiment: SPR.

In experiment [2] the target is T2, 2Ig-B7H3 without Fc fusion (human, UniProt Q5ZPR3-2 29-245, limits assumed).
T2 construct: also called 2IgB7H3 (R&D)
T2 sequence (looked up): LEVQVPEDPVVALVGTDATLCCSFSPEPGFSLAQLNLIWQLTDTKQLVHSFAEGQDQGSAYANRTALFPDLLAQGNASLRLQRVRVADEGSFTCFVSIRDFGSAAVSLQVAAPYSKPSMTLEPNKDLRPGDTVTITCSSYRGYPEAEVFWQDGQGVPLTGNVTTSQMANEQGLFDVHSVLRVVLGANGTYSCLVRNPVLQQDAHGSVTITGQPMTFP
Nature of the experiment: SPR.

For experiment [3], the target named is B7H3 on B7H3-positive human tumor cells (M14, LAN-1, IMR-32, HeLa) (human) (UniProt Q5ZPR3). Nature of the experiment: cell-based or functional assay.
The target of experiment [4] is T3, 4Ig-B7H3 fused to mouse Fc (B7H3-mFc) (human, UniProt Q5ZPR3 29-466, limits assumed, biotinylated on primary amines (NHS-biotin) in the experiment of paragraph 316).
T3 construct: Expressed in DG44 CHO cells; also called 4Ig-B7H3-Fc; 4Ig-B7H3-mFc; not shown: mouse Fc
T3 sequence (looked up): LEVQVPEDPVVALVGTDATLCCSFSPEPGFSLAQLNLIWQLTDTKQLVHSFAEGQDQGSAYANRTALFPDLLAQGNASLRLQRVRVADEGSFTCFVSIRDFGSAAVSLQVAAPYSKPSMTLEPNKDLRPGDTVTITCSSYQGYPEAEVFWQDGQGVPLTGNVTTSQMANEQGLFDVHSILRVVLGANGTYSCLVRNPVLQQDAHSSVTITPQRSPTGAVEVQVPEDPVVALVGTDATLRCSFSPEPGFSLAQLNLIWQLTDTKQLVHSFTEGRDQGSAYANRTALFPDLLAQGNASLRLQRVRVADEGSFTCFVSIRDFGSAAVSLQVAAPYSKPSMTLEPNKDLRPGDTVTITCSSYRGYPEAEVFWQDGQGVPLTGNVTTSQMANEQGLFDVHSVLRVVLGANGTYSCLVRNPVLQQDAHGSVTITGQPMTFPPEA
The experiment can be described thus: SPR, IgG on 4Ig-B7H3-Fc. Here is the method:
(§1) In brief, B7H3 antigen (either 2Ig-B7H3, 4Ig-B7H3, 2Ig-B7H3-mFc, 4Ig-B7H3-mFc), was directly immobilized onto the CM5 sensor chip via […]. Reference surface was set up for nonspecific binding and refractive index changes. […] The association and dissociation phase data were fitted simultaneously to a 1:1 model by using BIAevaluation 3.2. All the experiments were done at 25° C.

Experiment [5] addresses T4, wild type 2Ig-B7H3-mFc (human, UniProt Q5ZPR3-2 29-248, limits assumed).
T4 construct: Q5ZPR3 canonical entry is the 4Ig isoform; the 2Ig form is its shorter isoform; also called 2Ig-B7H3-Fc; WT 2Ig-B7H3-Fc; not shown: mouse Fc
T4 sequence (looked up): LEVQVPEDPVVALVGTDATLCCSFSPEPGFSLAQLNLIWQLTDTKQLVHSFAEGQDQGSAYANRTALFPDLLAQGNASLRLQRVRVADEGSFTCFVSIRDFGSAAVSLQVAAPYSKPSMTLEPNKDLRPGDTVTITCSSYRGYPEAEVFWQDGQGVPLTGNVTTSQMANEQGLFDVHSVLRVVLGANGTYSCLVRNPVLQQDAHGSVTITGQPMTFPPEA
The experiment can be described thus: SPR, IgG on 2Ig-B7H3-mFc. As for the experimental part: as §1

Experiment [6] has as its target T2, 2Ig-B7H3 without Fc fusion. The experiment can be described thus: SPR, IgG on 2Ig-B7-H3 without Fc fusion. Here is the method: as §1
Experiment [7] concerns the target T1, 4Ig-B7H3. The experiment can be described thus: SPR, IgG on 4Ig-B7-H3 without Fc fusion. As for the experimental part: as §1
Experiment [8] deals with B7H3 on B7H3-positive human tumor cells (M14, LAN-1, IMR-32, HeLa) (human) (UniProt Q5ZPR3). Nature of the experiment: cell-binding assay of 131I-labelled antibody on LAN-1 cells.
Experiment [9] addresses T5, 2Ig-B7H3-mFc mutant R127A (human, UniProt Q5ZPR3-2 29-248, limits assumed).
T5 construct: not shown: mouse Fc
T5 sequence (looked up): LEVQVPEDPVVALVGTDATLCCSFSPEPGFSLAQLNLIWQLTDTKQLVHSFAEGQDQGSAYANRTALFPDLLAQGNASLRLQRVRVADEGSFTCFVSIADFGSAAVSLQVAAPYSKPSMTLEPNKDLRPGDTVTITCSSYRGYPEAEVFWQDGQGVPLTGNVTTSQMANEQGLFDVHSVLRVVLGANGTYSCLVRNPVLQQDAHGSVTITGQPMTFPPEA
Nature of the experiment: SPR, IgG over immobilised 2Ig-B7H3-mFc R127A (left panel); antibody concentration not shown.

The target of experiment [10] is T4, wild type 2Ig-B7H3-mFc. Nature of the experiment: SPR, antigen on CM5 chip. Here is the method:
(§2) In brief, B7H3 antigen (either 2Ig-B7H3, 4Ig-B7H3, 2Ig-B7H3-mFc, 4Ig-B7H3-mFc), was directly immobilized onto the CM5 sensor chip via […]. Reference surface was set up for nonspecific binding and refractive index changes. For analysis of the kinetics of interactions, varying concentrations of scFvs were injected at flow rate of 30 μl/min using running buffer containing 10 mM HEPES, 150 mM NaCl, 3 mM EDTA, and 0.05% Surfactant P-20 (pH 7.4). The association and dissociation phase data were fitted simultaneously to a 1:1 model by using BIAevaluation 3.2. All the experiments were done at 25° C.

For experiment [11], the target named is T5, 2Ig-B7H3-mFc mutant R127A. The experiment can be described thus: SPR, mutant 2Ig-B7H3-mFc on chip. As for the experimental part:
as §2

The target in experiment [12] is T1, 4Ig-B7H3. The experiment can be described thus: ELISA titled 'B7H3 ELISA'; legend: 4Ig-B7H3 (the ELISA method coats B7H3-mFc); IgG serially diluted. Here is the method:
B7H3-mFc (100 ng/well) or 2IgB7H3 (R&D, Minneapolis, Minn.) (25 ng/well) were coated on polyvinyl microtiter plates in PBS overnight. Plates were then blocked with 0.5% BSA in PBS at 150 μl per well for 1 h at room temperature. Antibodies were added in triplicates with serial dilution in 0.5% BSA. Following incubation for 1 h at room temperature and washing with PBS, HRP-mouse anti-human Fc antibody, HRP-streptavidin, or HRP-mouse anti-Flag antibody was added. After incubation for 1 h at room temperature and further washing, the color was developed and quantified using an ELISA plate reader at 490 nm.

Experiment [13] concerns the target T5, 2Ig-B7H3-mFc mutant R127A. Nature of the experiment: SPR, IgG over immobilised 2Ig-B7H3-mFc R127A (right panel); antibody concentration not shown.

B1: hu8H9 3.1 IgG1 (antibody, V domains shown)
VH: QVQLVQSGAEVVKPGASVKLSCKTSGYTFTNYDINWVRQRPGQGLEWIGWIFPGDDSTQYNEKFKGKATLTTDTSTSTAYMELSSLRSEDTAVYFCARQTTGTWFAYWGQGTLVTVSS
VL: EIVMTQSPATLSVSPGERVTLSCRASQSISDYLYWYQQKSHESPRLLIKYASQSISGIPARFSGSGSGSEFTLTINSVEPEDVGVYYCQNGHSFPLTFGQGTKLELKR
notes: also called clone 3.1
Turning to B1, the “fold enhancement in affinity against parental hu8H9 H3L3” value in experiment [1] and in [2] was 2.5 to 9 fold throughout. This molecule also gave an ADCC EC50 (µg/ml), 51Cr release, LAN-1 targets, human PBMC effectors in experiment [3] of 0.31 µg/mL. The molecule also registered a Fold change EC50 relative to ch8H9 (ADCC) in experiment [3] of 5 fold. Besides, the Kd in experiment [4] amounted to 2 nM; in experiment [5], 6 nM; in [6] it was 5 nM; in [7] it was 13 nM. In addition, the koff in [4] worked out at 0.000114 s⁻¹; in experiment [5], 0.000232 s⁻¹; in [6], 0.000171 s⁻¹; in experiment [7], 0.000298 s⁻¹. Also, the kon in experiment [4] was 55600 M⁻¹ s⁻¹; in experiment [5], 38700 M⁻¹ s⁻¹; in experiment [6] it was 33900 M⁻¹ s⁻¹; in experiment [7], 23400 M⁻¹ s⁻¹. This molecule returned an in vitro immunoreactivity in experiment [8] of 54%. The binding result in experiment [9] is on record as “no binding”.

B2: mouse/human chimeric 8H9 (ch8H9) IgG1 (antibody, V domains shown)
VH: QVQLQQSGAELVKPGASVKLSCKASGYTFTNYDINWVRQRPEQGLEWIGWIFPGDGSTQYNEKFKGKATLTTDTSSSTAYMQLSRLTSEDSAVYFCARQTTATWFAYWGQGTLVTVSA
VL: DIVMTQSPATLSVTPGDRVSLSCRASQSISDYLHWYQQKSHESPRLLIKYASQSISGIPSRFSGSGSGSDFTLSINSVEPEDVGVYYCQNGHSFPLTFGAGTKLELKR
In the case of B2, the Kd came to 1.2 nM in experiment [4]; 0.74 nM in experiment [10]; 0.76 nM in experiment [5]; 2.7 nM in experiment [6]; 7.7 nM in experiment [7]. The koff is 5.49e-05 s⁻¹ in experiment [4]; 3.51e-05 s⁻¹ in [10]; 3.79e-05 s⁻¹ in experiment [5]; 8.73e-05 s⁻¹ in experiment [6]; 0.000218 s⁻¹ in experiment [7]. In addition, the kon in experiment [4] came to 44800 M⁻¹ s⁻¹; in experiment [10], 47400 M⁻¹ s⁻¹; in [5] it was 49600 M⁻¹ s⁻¹; in experiment [6], 32100 M⁻¹ s⁻¹; in experiment [7], 28300 M⁻¹ s⁻¹. Also, the binding result in [11] is listed as “no binding (tested: 400 nM)”. Moreover, the “EC50 (read off the curve)” value in experiment [12] was about 0.005 mg/L.

B3: hu8H9 5.1 IgG1 (antibody, V domains shown)
VH: QVQLVQSGAEVVKPGASVKVSCKTSGYTFTNYDINWVRQRPGQGLEWIGWIFPGDDSTQYNEKFKGRVTMTTDTSTSTVYMELSSLRSEDTAVYFCARQTTGTWFAYWGQGTLVTVSS
VL: EIVMTQSPATLSVSPGERVTLSCRASQSISDYLYWYQQKSHQAPRLLIKYASQSISGIPARFSGSGSGSEFTLTISSLQPEDFGVYYCQNGHSFPLTFGQGTKLELKR
notes: also called clone 5.1
For the molecule B3, in experiment [3], the ADCC EC50 (µg/ml), 51Cr release, LAN-1 targets, human PBMC effectors worked out at 0.16 µg/mL and the Fold change EC50 relative to ch8H9 (ADCC) stood at 9 fold. In [4], this molecule gave a dissociation constant Kd of 1.3 nM, a koff of 7.08e-05 s⁻¹ and a kon of 59200 M⁻¹ s⁻¹. In [5], this molecule showed a dissociation constant Kd of 0.82 nM, a koff of 5.59e-05 s⁻¹ and a kon of 67800 M⁻¹ s⁻¹. The binding result in experiment [13] is listed as “no binding”.
